Reference: US20190352402A1 (NANJING LEADS BIOLABS, published 2019)
Changes are numbered by the printed parent chain. Like-named read-outs stand apart in the source and are kept apart here. Values belong to the binder of their own block, whether it stands above or below them.

Assays:
[1] = molecular target: Human FcγRI (Acrobiosystems, Cat# FCA-H52H2) (human, UniProt P12314 16-288); test: ELISA, human FcγRI coated, detection with anti-human F(ab')2-HRP
[2] = molecular target: T1, human PD-1 of SEQ ID NO.: 66 stably expressed on transfected cells (CHO-K1-PD-1 cells; Jurkat-NFAT-PD1 cells) (human, UniProt Q15116 25-288); test: flow cytometry on CHO-K1 cells stably expressing human PD-1, MFI
T1 construct: also called cell surface PD-1; PD-1 expressed on CHO-K1-PD-1 cells
T1 sequence (Q15116 25-288 limits assumed): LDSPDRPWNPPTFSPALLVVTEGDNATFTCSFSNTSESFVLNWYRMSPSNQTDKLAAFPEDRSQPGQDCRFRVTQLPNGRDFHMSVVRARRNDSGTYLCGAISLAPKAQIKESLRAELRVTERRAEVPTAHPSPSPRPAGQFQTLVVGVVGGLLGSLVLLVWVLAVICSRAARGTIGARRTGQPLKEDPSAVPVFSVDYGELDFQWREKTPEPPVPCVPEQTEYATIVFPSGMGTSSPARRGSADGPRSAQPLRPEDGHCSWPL

[3] = molecular target: T2, Human PD-1 (prepared in Leadsbiolabs, amino acid sequence of NP_005009.2 set forth in SEQ ID NO.: 66) (human, UniProt Q15116 25-170, limits assumed); test: blocking ELISA, human PD-1 coated, blocked ligand human PD-L1-mouse Fc-tag
T2 sequence (Q15116 25-170 limits assumed): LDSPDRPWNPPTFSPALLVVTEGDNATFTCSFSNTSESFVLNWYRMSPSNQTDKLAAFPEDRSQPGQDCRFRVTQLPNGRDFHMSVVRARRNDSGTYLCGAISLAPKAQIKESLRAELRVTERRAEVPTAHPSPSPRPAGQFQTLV

[4] = molecular target: T2, Human PD-1 (prepared in Leadsbiolabs, …); test: as above; remark: listed apart in the source
[5] = molecular target: T2, Human PD-1 (prepared in Leadsbiolabs, …); test: as above; remark: listed apart in the source
[6] = molecular target: T2, Human PD-1 (prepared in Leadsbiolabs, …); test: as above; remark: listed apart in the source
[7] = molecular target: T3, Human PD-1 protein (SINO Biological Inc., Cat#10377-H08H-100) (human, UniProt Q15116 25-167); test: ELISA, human PD-1 coated at 25 ng/well, detection with anti-human F(ab')2-HRP
T3 construct: Bought protein
T3 sequence (Q15116 25-167 limits assumed): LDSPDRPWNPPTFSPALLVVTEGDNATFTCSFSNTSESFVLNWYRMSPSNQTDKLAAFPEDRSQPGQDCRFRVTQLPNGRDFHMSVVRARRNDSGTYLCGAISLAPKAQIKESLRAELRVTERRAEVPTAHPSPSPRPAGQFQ

[8] = molecular target: T3, Human PD-1 protein (SINO Biological …); test: as above; remark: listed apart in the source
[9] = molecular target: T3, Human PD-1 protein (SINO Biological …); test: as above; remark: listed apart in the source
[10] = molecular target: T3, Human PD-1 protein (SINO Biological …); test: as above; remark: listed apart in the source
[11] = molecular target: T2, Human PD-1 (prepared in Leadsbiolabs, …); test: blocking ELISA, human PD-1 coated, blocked ligand human PD-L1-mouse Fc-tag; x axis printed as log values -1 to 2
[12] = molecular target: T4, human CTLA-4 (Acrobiosystems, Cat# CT4-H5229) (human, UniProt P16410 36-161); test: ELISA, human CTLA-4 coated at 25 ng/well
T4 sequence (looked up): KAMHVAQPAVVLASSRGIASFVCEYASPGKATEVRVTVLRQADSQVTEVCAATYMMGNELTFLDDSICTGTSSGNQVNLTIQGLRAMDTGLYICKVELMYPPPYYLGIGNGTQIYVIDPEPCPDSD

[13] = molecular target: T5, cynomolgus PD-1 expressed on stimulated cynomolgus PBMCs (cynomolgus monkey, UniProt B0LAJ3 25-288); test: flow cytometry on cynomolgus PBMCs after SEB stimulation, MFI
T5 construct: also called monkey PD-1; PD-1 expressed on cynomolgus monkey PBMCs
T5 sequence (B0LAJ3 entry or part of it limits assumed): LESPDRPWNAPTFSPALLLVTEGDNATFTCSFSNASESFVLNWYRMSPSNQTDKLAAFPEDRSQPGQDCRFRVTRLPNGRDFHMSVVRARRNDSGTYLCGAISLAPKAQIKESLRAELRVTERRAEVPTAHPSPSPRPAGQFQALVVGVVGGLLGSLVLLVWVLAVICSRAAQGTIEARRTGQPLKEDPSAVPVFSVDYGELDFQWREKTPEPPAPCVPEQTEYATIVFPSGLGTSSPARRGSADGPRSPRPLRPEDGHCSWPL

[14] = molecular target: T6, mouse PD-1 protein (SINO Biological Inc., Cat#50124-M08H) (mouse, UniProt Q02242 25-167); test: ELISA, mouse PD-1 coated at 25 ng/well
T6 sequence (looked up): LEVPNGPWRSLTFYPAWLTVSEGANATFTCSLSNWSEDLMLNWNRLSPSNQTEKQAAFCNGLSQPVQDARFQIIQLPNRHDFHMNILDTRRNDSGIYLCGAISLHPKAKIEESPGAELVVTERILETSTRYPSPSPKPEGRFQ

[15] = molecular target: T7, human BTLA (Acrobiosystems, Cat# BTA-H52E0) (human, UniProt Q7Z6A9 31-150, limits assumed); test: ELISA, human BTLA coated at 25 ng/well
T7 sequence (looked up): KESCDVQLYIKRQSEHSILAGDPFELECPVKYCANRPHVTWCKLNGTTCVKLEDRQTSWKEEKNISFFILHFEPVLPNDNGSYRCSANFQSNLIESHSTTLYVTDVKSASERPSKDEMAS

[16] = molecular target: T8, Human ICOS (Acrobiosystems, Cat# ICS-H5250) (human, UniProt Q9Y6W8 21-140, limits assumed); test: ELISA, human ICOS coated at 25 ng/well
T8 sequence (looked up): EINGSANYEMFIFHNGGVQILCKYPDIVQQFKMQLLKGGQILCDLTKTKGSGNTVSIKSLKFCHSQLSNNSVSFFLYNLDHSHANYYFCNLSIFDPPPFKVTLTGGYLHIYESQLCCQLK

[17] = molecular target: T2, Human PD-1 (prepared in Leadsbiolabs, …); test: blocking ELISA, human PD-1 coated, blocked ligand human PD-L1-mouse Fc-tag; fit value printed in the table although the control's curve does not fall (see non_binding)
[18] = molecular target: T3, Human PD-1 protein (SINO Biological …); test: ELISA, human PD-1 coated at 25 ng/well
[19] = molecular target: T9, cynomolgus PD-1-his protein (Acrobiosystems, Cat# PD1-05223) (cynomolgus monkey, UniProt B0LAJ3 25-170); test: ELISA, cynomolgus PD-1 coated at 25 ng/well
T9 construct: also called cynoPD-1-his; cynomolgus PD-1 protein
T9 sequence (B0LAJ3 entry or part of it limits assumed): as the sequence (Q15116 25-170 limits assumed) above, with D2E, P10A, V19L, T35A, Q75R, T144A counted along it

Sequence of Human FcγRI (Acrobiosystems, Cat# FCA-H52H2) (P12314 16-288 limits assumed): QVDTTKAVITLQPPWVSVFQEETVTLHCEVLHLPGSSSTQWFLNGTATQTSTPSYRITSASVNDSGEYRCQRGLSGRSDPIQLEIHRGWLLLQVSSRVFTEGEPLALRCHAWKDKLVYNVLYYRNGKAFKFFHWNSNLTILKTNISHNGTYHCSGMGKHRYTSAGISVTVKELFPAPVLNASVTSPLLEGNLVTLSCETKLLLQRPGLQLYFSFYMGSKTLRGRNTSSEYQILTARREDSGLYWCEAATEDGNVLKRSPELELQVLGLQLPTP

B2: anti-PD-1 antibody 21F12 (mutant IgG1 constant region of SEQ ID NO: 18) (antibody, V domains shown)
VH: QMQLVQSGAEVKKPGASVKLSCKASGYIFTSYYIHWVRQAPGQGLEWVGVINPSGGSTTYAQKFQGRVTMTRDTSISTAYMELSRLRSDDTVVYYCARGSYSSGWDYYYYYGMDVWGKGTLVTVSS
VL: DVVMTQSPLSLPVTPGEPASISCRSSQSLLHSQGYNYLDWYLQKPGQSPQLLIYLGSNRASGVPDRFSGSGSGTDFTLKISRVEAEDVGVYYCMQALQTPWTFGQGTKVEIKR
notes: Full length IgG expressed in CHO-S cells
EC50 [2]: 1.06 nM
IC50 [3]: 0.913 nM
IC50 [4]: 0.834 nM
IC50 [5]: 0.684 nM
IC50 [6]: 0.716 nM
EC50 [7]: 0.0447 nM

B6: anti-PD-1 antibody 21F12-1C4 (mutant IgG1 constant region of SEQ ID NO: 18) (antibody, V domains shown)
VH: B2 VH with G26D
VL: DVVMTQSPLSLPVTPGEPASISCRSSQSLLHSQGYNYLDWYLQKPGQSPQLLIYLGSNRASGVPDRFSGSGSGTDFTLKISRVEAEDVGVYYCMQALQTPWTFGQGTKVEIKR
notes: mutant IgG1
EC50 [2]: 0.479 nM
IC50 [6]: 0.558 nM

B8: anti-PD-1 antibody 21F12-1B12 (mutant IgG1 constant region of SEQ ID NO: 18) (antibody, V domains shown)
VH: B2 VH with I28P, T30Q
VL: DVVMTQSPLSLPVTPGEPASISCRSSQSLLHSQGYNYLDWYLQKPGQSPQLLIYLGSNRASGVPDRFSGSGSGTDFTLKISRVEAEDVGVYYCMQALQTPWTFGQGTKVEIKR
notes: mutant IgG1
EC50 [2]: 0.257 nM
EC50 [10]: 0.0936 nM
EC50 [8]: 0.102 nM
IC50 [3]: 0.623 nM
IC50 [11]: 0.725 nM

B9: anti-PD-1 antibody 21F12-1E10 (mutant IgG1 constant region of SEQ ID NO: 18) (antibody, V domains shown)
VH: B2 VH with I28P
VL: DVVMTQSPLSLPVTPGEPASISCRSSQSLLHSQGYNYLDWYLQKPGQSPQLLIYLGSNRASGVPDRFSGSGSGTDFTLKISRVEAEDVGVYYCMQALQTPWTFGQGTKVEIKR
notes: mutant IgG1
EC50 [2]: 0.464 nM
IC50 [5]: 0.482 nM
EC50 [9]: 0.111 nM

B11: IgG Control (antibody, V domains shown)
VH: QVQLQESGGGVVRPGGSLRLSCAASGFTFDDYGMSWVRQAPGKGLEWVSGINWSGGSTYYADSVKGRSTISRDNSKNTLYLQMNSLRAEDTAVYYCATGGYWGQGTLVTVSS
VL: not shown
notes: also called human IgG control
IC50 [17]: 3.77 nM
binding result [18]: no binding (tested: about 2 nM)
binding result [19]: no binding (tested: about 2 nM)

The remaining lines, values ahead:

binding result [1]: binds
B1: Rituximab analog (antibody, human IgG1, kappa)
heavy: not shown
light: QIVLSQSPAILSASPGEKVTMTCRASSSVSYIHWFQQKPGSSPKPWIYATSNLASGVPVRFSGSGSGTSYSLTISRVEAEDAATYYCQQWTSNPPTFGGGTKLEIKRTVAAPSVFIFPPSDEQLKSGTASVVCLLNNFYPREAKVQWKVDNALQSGNSQESVTEQDSKDSTYSLSSTLTLSKADYEKHKVYACEVTHQGLSSPVTKSFNRGEC
notes: Wild type IgG1 heavy chain constant region; also called positive control of the FcγRI ELISA

EC50 [8]: 0.136 nM
IC50 [3]: 1.1 nM
B3: anti-PD-1 antibody 21F12-2E1 (mutant IgG1 constant region of SEQ ID NO: 18) (antibody, V domains shown)
VH: B2 VH with G26E, T30Q
VL: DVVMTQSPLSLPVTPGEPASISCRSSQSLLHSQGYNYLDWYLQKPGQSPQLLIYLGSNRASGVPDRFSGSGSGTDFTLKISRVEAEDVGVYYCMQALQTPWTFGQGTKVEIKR
notes: mutant IgG1

EC50 [2]: 0.334 nM
IC50 [4]: 0.699 nM
EC50 [9]: 0.108 nM
B4: anti-PD-1 antibody 21F12-3G1 (mutant IgG1 constant region of SEQ ID NO: 18) (antibody, V domains shown)
VH: B2 VH with S102N
VL: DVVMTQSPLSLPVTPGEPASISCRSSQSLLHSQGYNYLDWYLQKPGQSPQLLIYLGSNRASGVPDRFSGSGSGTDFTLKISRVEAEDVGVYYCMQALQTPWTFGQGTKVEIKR
notes: mutant IgG1

EC50 [8]: 0.101 nM
IC50 [3]: 1.15 nM
B5: anti-PD-1 antibody 21F12-2H7 (mutant IgG1 constant region of SEQ ID NO: 18) (antibody, V domains shown)
VH: B2 VH with G26Q, T30Q
VL: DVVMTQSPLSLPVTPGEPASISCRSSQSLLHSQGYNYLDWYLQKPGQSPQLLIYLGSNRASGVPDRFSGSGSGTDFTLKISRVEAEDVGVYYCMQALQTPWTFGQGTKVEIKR
notes: mutant IgG1

EC50 [8]: 0.0936 nM
IC50 [3]: 0.653 nM
EC50 [9]: 0.0914 nM
B7: anti-PD-1 antibody 21F12-1E11 (mutant IgG1 constant region of SEQ ID NO: 18) (antibody, V domains shown)
VH: B2 VH with I28F, T30Q
VL: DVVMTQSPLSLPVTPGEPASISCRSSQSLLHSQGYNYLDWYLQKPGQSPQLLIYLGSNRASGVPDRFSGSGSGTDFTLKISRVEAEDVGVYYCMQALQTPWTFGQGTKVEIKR
notes: mutant IgG1

binding result [12]: no binding (tested: about 2 nM)
EC50 [13]: 0.692 nM
binding result [14]: no binding (tested: about 2 nM)
binding result [15]: no binding (tested: about 2 nM)
binding result [16]: no binding (tested: about 2 nM)
B10: Nivolumab analog (antibody, human IgG4 S228P, kappa, V domains shown)
VH: QVQLVESGGGVVQPGRSLRLDCKASGITFSNSGMHWVRQAPGKGLEWVAVIWYDGSKRYYADSVKGRFTISRDNSKNTLFLQMNSLRAEDTAVYYCATNDDYWGQGTLVTVSS
VL: EIVLTQSPATLSLSPGERATLSCRASQSVSSYLAWYQQKPGQAPRLLIYDASNRATGIPARFSGSGSGTDFTLTISSLEPEDFAVYYCQQSSNWPRTFGQGTKVEIKR
notes: also called positive control
